Laboratory results taken from US20130171147A1.

Biological target: rat prolactin receptor (PRLR) on Nb2 lymphoma cells (rat) (UniProt P05710)
Assay: FACS on rat lymphoma cell line Nb2, IgG1

B1: HE06.642 (antibody, IgG1, V domains shown)
VH: EVQLVESGGGLVQPGGSLRLSCAVSGFTFSSYGMSWVRQAPGKGLEWVATVSSGGTYTYYPDSVKGRFTISRDNSKNTLYLQMNSLRAEDTAVYYCARHRGNYYATYYYAMDYWGQGTLVTVSS
VL: DIVLTQSPDSLAVSLGERATINCKASKSVSTSGYTYMHWYQQKPGQPPKLLIYLASNRESGVPDRFSGSGSGTDFTLTISPVQAEDVATYYCQHSGELPPSFGQGTKLEIKR
**Q.** How did the EC50 turn out when B1 was run?
**A.** Its EC50 is 0.3 nM.

B2: 001-E06 (human IgG1) (antibody, V domains shown)
VH: QVELLESGGGLVQPGGSLRLSCAASGFTFSSYWMSWVRQAPGKGLEWVSSVSDTGTDTHYADSVKGRFTISRDNSKNTLYLQMNSLRAEDTAVYYCAKTPLAYSSGWYYFDYWGQGTLVTVSS
VL: DIVLTQPPSASGTPGQRVTISCSGSSSNIGSNTVNWYQQLPGTAPKLLIYRNYQRPSGVPDRFSGSKSGTSASLAISGLRSEDEADYYCQSYDSSLSGSVFGGGTKLTVLG
**Q.** How did the EC50 turn out when B2 was run?
**A.** The EC50 was 1.2 nM.
